Reference: publication PMC9482650, “Quantitative fragmentomics allow affinity mapping of interactomes” (Nature Communications, 2022)

Experiments:
Test in all cases: holdup assay
Design in all cases: key: below the threshold = too weak to quantify, mostly under pKd 3.1 to 4
[1] = molecular target: MAGI1_2, Q96QZ7
[2] = molecular target: T1, MPDZ_5, O75970
T1 sequence (O75970 695-796, limits assumed, looked up): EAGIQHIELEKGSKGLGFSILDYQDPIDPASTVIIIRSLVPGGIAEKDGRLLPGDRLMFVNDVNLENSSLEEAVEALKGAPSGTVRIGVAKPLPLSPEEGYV

[3] = molecular target: MAGI2_5, Q86UL8
[4] = molecular target: PICK1, Q9NRD5
[5] = molecular target: T2, PDZD2_2, O15018
T2 sequence (O15018 329-429, limits assumed, looked up): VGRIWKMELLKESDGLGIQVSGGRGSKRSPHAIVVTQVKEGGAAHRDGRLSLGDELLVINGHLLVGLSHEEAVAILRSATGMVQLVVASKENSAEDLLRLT

[6] = molecular target: T3, PDZRN3_1, Q9UPQ7
T3 sequence (Q9UPQ7 244-349, limits assumed, looked up): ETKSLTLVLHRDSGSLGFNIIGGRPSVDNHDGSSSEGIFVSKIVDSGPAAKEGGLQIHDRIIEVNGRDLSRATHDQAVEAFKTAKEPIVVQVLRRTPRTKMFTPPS

[7] = molecular target: TJP2_1, Q9UDY2
[8] = molecular target: T4, SYNJ2BP, P57105
T4 sequence (P57105 8-110, limits assumed, looked up): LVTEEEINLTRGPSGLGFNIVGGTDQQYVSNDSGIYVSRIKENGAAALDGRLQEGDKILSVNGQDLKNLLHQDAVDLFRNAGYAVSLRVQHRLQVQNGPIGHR

[9] = molecular target: T5, GRIP1_5, Q9Y3R0
T5 sequence (Q9Y3R0 568-668, limits assumed, looked up): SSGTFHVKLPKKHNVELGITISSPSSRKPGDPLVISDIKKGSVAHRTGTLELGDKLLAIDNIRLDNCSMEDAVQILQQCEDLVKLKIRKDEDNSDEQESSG

[10] = molecular target: T6, TJP3_3, O95049
T6 sequence (O95049 375-456, limits assumed, looked up): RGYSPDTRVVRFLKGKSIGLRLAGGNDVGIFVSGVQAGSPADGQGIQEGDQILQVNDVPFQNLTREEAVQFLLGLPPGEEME

[11] = molecular target: NOS1, P29475
[12] = molecular target: T7, LNX2_3, Q8N448
T7 sequence (Q8N448 463-564, limits assumed, looked up): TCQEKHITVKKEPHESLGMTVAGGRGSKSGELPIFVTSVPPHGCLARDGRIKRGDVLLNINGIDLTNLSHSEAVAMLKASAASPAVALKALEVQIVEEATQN

[13] = molecular target: T8, RADIL, Q96JH8
T8 sequence (Q96JH8 971-1071, limits assumed, looked up): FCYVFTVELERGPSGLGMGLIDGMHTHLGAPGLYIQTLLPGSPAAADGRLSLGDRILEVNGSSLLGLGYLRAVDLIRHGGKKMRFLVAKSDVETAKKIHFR

[14] = molecular target: NHERF4_2, Q86UT5
[15] = molecular target: LNX1_1, Q8TBB1
[16] = molecular target: IL16_3, Q14005
[17] = molecular target: T9, LNX2_2, Q8N448
T9 sequence (Q8N448 334-432, limits assumed, looked up): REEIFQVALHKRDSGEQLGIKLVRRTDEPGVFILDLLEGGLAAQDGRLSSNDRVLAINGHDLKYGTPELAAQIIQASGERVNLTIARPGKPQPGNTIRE

[18] = molecular target: T10, APBA2_1, Q99767
T10 sequence (Q99767 563-664, limits assumed, looked up): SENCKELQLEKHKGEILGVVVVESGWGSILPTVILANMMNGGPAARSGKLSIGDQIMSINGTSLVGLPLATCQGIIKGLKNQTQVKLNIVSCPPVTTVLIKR

[19] = molecular target: LNX1_3, Q8TBB1
[20] = molecular target: SCRIB_3, Q14160
[21] = molecular target: T11, PDZD7_3, Q9H5P4
T11 sequence (Q9H5P4 857-944, limits assumed, looked up): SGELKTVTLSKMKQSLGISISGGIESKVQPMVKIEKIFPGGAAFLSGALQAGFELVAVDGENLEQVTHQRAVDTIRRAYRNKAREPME

[22] = molecular target: GORASP1, Q9BQQ3
[23] = molecular target: T12, NHERF3_4, Q5T2W1
T12 sequence (Q5T2W1 373-468, limits assumed, looked up): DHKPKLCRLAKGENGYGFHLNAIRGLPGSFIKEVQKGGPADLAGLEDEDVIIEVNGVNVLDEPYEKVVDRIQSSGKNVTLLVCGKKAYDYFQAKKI

[24] = molecular target: MAGI2_4, Q86UL8
[25] = molecular target: GOPC, Q9HD26
[26] = molecular target: MAGI2_6, Q86UL8
[27] = plain residues with an end cap or a label only (N-terminal biotin on a linker: ttds)
[28] = plain residues with an end cap or a label only (N-terminal biotin on a linker: ahx)
[29] = plain residues with an end cap or a label only (N-terminal biotin on a linker: ado-ado)

Chain of NOS1, P29475 (P29475 9-101): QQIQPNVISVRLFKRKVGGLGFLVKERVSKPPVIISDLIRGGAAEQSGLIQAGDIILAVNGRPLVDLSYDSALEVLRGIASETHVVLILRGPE
Chain of SCRIB_3, Q14160 (Q14160 999-1103): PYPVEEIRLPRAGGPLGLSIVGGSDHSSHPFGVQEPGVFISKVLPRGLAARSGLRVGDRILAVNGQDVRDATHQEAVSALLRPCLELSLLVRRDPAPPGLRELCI
Chain of IL16_3, Q14005 (Q14005 1107-1207): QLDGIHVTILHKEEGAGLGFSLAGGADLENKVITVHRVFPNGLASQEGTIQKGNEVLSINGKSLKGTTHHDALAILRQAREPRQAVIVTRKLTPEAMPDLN
Chain of MAGI2_4, Q86UL8 (Q86UL8 772-865): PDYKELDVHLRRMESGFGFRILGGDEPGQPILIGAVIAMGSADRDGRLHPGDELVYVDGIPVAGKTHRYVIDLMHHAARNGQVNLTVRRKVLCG
Chain of PICK1, Q9NRD5 (Q9NRD5 17-115): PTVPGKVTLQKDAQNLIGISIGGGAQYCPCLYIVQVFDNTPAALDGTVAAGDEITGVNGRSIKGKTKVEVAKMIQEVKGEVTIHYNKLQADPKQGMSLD
Chain of NHERF4_2, Q86UT5 (Q86UT5 220-308): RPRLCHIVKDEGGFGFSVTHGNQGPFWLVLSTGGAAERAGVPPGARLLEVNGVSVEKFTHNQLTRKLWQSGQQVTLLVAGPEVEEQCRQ
Chain of MAGI1_2, Q96QZ7 (Q96QZ7 456-580): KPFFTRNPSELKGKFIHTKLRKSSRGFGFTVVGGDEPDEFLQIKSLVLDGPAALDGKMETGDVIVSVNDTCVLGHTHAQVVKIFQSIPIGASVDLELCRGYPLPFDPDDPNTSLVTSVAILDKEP
Chain of TJP2_1, Q9UDY2 (Q9UDY2 24-128): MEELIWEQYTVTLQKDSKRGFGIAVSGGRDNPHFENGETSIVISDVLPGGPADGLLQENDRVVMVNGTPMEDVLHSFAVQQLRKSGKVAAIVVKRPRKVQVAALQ
Chain of GORASP1, Q9BQQ3 (Q9BQQ3 1-208): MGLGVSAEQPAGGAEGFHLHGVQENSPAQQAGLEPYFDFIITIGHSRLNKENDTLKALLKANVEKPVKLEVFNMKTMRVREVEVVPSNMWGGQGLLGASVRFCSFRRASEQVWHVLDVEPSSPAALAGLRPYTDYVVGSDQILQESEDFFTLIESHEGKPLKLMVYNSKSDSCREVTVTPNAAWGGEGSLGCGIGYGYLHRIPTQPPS
Chain of MAGI2_5, Q86UL8 (Q86UL8 915-1017): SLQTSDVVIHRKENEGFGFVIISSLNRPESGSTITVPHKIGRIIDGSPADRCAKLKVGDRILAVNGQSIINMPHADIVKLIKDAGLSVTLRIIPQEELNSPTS
Chain of LNX1_1, Q8TBB1 (Q8TBB1 261-371): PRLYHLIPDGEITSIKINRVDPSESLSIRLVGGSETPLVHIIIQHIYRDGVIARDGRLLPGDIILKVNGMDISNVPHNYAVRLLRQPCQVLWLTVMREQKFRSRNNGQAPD
Chain of MAGI2_6, Q86UL8 (Q86UL8 1141-1229): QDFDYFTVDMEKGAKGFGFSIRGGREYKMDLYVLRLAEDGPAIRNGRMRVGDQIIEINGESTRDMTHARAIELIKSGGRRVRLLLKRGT
Chain of LNX1_3, Q8TBB1 (Q8TBB1 500-596): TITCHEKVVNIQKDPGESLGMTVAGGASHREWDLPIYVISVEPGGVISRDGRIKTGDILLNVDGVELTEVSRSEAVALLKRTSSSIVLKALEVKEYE

## PSRDRKETSI [RALBP1, Q15311]
[1]; [27]
  pKd: 3.91
[2]; [27]
  pKd: below the threshold
[3]; [27]
  pKd: below the threshold
[4]; [27]
  pKd: below the threshold
[5]; [27]
  pKd: 3.75
[6]; [27]
  pKd: 4.37
[7]; [27]
  pKd: below the threshold
[8]; [27]
  pKd: 4.7
[9]; [27]
  pKd: below the threshold
[10]; [27]
  pKd: below the threshold
[11]; [27]
  pKd: 3.52
[12]; [27]
  pKd: below the threshold
[13]; [27]
  pKd: below the threshold
[14]; [27]
  pKd: below the threshold
[15]; [27]
  pKd: below the threshold
[16]; [27]
  pKd: below the threshold
[17]; [27]
  pKd: below the threshold
[18]; [27]
  pKd: below the threshold
[19]; [27]
  pKd: below the threshold
[20]; [27]
  pKd: 4.97
[21]; [27]
  pKd: 4.89
[22]; [27]
  pKd: 3.38
[23]; [27]
  pKd: below the threshold
[24]; [27]
  pKd: below the threshold
[25]; [27]
  pKd: 3.6
[26]; [27]
  pKd: below the threshold

## VNENQKEYFF [CNTNAP4, Q9C0A0]
[1]; [28]
  pKd: below the threshold
[2]; [28]
  pKd: 4.22
[3]; [28]
  pKd: 3.54
[4]; [28]
  pKd: below the threshold
[5]; [28]
  pKd: below the threshold
[6]; [28]
  pKd: below the threshold
[7]; [28]
  pKd: below the threshold
[8]; [28]
  pKd: below the threshold
[9]; [28]
  pKd: below the threshold
[10]; [28]
  pKd: below the threshold
[11]; [28]
  pKd: 3.83
[12]; [28]
  pKd: below the threshold
[13]; [28]
  pKd: 4.3
[14]; [28]
  pKd: below the threshold
[15]; [28]
  pKd: below the threshold
[16]; [28]
  pKd: below the threshold
[17]; [28]
  pKd: below the threshold
[18]; [28]
  pKd: below the threshold
[19]; [28]
  pKd: below the threshold
[20]; [28]
  pKd: 3.7
[21]; [28]
  pKd: below the threshold
[22]; [28]
  pKd: below the threshold
[23]; [28]
  pKd: below the threshold
[24]; [28]
  pKd: 3.55
[25]; [28]
  pKd: below the threshold
[26]; [28]
  pKd: 3.51

## DAAHHDESNC [FMNL3, Q8IVF7]
[1]; [29]
  pKd: below the threshold
[2]; [29]
  pKd: below the threshold
[3]; [29]
  pKd: below the threshold
[4]; [29]
  pKd: below the threshold
[5]; [29]
  pKd: 4.13
[6]; [29]
  pKd: below the threshold
[7]; [29]
  pKd: below the threshold
[8]; [29]
  pKd: 3.5
[9]; [29]
  pKd: below the threshold
[10]; [29]
  pKd: below the threshold
[11]; [29]
  pKd: below the threshold
[12]; [29]
  pKd: below the threshold
[13]; [29]
  pKd: below the threshold
[14]; [29]
  pKd: below the threshold
[15]; [29]
  pKd: below the threshold
[16]; [29]
  pKd: below the threshold
[17]; [29]
  pKd: below the threshold
[18]; [29]
  pKd: below the threshold
[19]; [29]
  pKd: below the threshold
[20]; [29]
  pKd: below the threshold
[21]; [29]
  pKd: below the threshold
[22]; [29]
  pKd: below the threshold
[23]; [29]
  pKd: below the threshold
[24]; [29]
  pKd: below the threshold
[25]; [29]
  pKd: below the threshold
[26]; [29]
  pKd: below the threshold

## EKPIDSETKM [SLC1A3, P43003]
[1]; [29]
  pKd: below the threshold
[2]; [29]
  pKd: below the threshold
[3]; [29]
  pKd: below the threshold
[4]; [29]
  pKd: below the threshold
[5]; [29]
  pKd: below the threshold
[6]; [29]
  pKd: below the threshold
[7]; [29]
  pKd: below the threshold
[8]; [29]
  pKd: below the threshold
[9]; [29]
  pKd: below the threshold
[10]; [29]
  pKd: below the threshold
[11]; [29]
  pKd: below the threshold
[12]; [29]
  pKd: below the threshold
[13]; [29]
  pKd: below the threshold
[14]; [29]
  pKd: below the threshold
[15]; [29]
  pKd: below the threshold
[16]; [29]
  pKd: below the threshold
[17]; [29]
  pKd: below the threshold
[18]; [29]
  pKd: below the threshold
[19]; [29]
  pKd: below the threshold
[20]; [29]
  pKd: 3.58
[21]; [29]
  pKd: below the threshold
[22]; [29]
  pKd: below the threshold
[23]; [29]
  pKd: below the threshold
[24]; [29]
  pKd: below the threshold
[25]; [29]
  pKd: below the threshold
[26]; [29]
  pKd: below the threshold
